How the values were obtained:
[1] = biological target: CCR5 on CF2.CD4.CCR5 cells (Homo sapiens (Human)) (UniProt P51681)
[2] = biological target: CD4 on CF2.CD4.CCR5 cells (Homo sapiens (Human)) (UniProt P01730)

For JR-FL SOS gp120/gp41 trimer, the infection of CF2.CD4.CCR5 target cells [1] was 100 % of mock and the infection of CF2.CD4.CCR5 target cells [2] was 100 % of mock.
